{
  "source": "patent US20230190867A1",
  "about": "“METHODS OF TREATING NASH AND COMPOSITIONS THEREFORE” (BIOINCEPT, LLC, priority 2018, published 2023)",
  "key": {"[1]": {"biological_target": "78 kDa glucose-regulated protein (Homo sapiens) (UniProt P11021)", "experiment": "PIF-agarose affinity extraction of normal human liver lysate 3, LC-MS/MS"}, "[2]": {"biological_target": "Activated RNA polymerase II transcriptional coactivator p15 (Homo sapiens) (UniProt P53999)", "experiment": "PIF-agarose affinity extraction of normal human liver lysate 3, LC-MS/MS"}, "[3]": {"biological_target": "Protein disulfide-isomerase A4 (Homo sapiens) (UniProt P13667)", "sequence (P13667 21-645 limits assumed)": "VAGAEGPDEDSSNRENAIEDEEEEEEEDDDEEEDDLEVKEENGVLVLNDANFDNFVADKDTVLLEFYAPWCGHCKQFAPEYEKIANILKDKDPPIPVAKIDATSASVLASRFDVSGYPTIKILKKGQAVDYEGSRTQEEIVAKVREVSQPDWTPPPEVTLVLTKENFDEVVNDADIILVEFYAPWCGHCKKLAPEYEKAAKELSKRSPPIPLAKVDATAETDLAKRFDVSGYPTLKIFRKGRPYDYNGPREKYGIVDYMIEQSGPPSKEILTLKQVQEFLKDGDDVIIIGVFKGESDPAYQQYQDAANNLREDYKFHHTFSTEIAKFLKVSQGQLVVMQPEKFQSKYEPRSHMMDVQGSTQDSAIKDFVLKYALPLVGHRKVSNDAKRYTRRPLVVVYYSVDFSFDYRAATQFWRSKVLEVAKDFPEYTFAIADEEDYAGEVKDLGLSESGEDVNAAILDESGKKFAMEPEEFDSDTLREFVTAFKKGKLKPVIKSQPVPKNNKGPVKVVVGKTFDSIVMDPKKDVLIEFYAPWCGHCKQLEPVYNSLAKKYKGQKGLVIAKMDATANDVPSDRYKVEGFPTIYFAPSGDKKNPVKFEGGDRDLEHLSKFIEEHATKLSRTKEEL", "experiment": "PIF-agarose affinity extraction of normal human liver lysate 3, LC-MS/MS"}, "[4]": {"biological_target": "Alcohol dehydrogenase 1A (Homo sapiens) (UniProt P07327)", "sequence (P07327 2-375 limits assumed)": "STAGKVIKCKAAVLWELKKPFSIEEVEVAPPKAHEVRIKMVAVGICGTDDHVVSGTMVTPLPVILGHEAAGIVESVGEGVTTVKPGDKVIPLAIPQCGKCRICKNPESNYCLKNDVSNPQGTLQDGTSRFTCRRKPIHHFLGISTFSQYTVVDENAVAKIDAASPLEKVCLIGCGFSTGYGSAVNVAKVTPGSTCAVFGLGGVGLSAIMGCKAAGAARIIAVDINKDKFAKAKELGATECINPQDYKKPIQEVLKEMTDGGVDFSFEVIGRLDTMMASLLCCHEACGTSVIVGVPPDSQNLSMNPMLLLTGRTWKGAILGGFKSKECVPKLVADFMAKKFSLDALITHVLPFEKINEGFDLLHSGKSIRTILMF", "experiment": "PIF-agarose affinity extraction of normal human liver lysate 3, LC-MS/MS"}, "[5]": {"biological_target": "Protein disulfide-isomerase A3 (Homo sapiens) (UniProt P30101)", "sequence (P30101 25-505 limits assumed)": "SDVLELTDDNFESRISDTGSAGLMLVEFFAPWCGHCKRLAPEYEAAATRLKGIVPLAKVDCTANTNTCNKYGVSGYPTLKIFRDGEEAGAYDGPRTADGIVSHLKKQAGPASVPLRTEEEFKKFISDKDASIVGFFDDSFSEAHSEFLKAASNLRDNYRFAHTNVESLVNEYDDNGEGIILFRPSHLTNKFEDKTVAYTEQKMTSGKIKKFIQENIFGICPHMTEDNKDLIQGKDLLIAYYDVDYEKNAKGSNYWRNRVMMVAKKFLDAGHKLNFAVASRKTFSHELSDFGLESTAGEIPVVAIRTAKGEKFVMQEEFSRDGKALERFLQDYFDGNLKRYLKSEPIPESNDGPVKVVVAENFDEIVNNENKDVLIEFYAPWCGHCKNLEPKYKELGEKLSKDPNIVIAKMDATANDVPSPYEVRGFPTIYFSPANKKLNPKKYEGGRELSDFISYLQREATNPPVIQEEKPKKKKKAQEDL", "experiment": "PIF-agarose affinity extraction of normal human liver lysate 3, LC-MS/MS"}, "[6]": {"biological_target": "Calreticulin (Homo sapiens) (UniProt P27797)", "experiment": "PIF-agarose affinity extraction of normal human liver lysate 3, LC-MS/MS"}, "[7]": {"biological_target": "Tropomyosin alpha-4 chain (Homo sapiens) (UniProt P67936)", "experiment": "PIF-agarose affinity extraction of normal human liver lysate 3, LC-MS/MS"}, "[8]": {"biological_target": "Protein disulfide-isomerase (Homo sapiens) (UniProt P07237)", "experiment": "PIF-agarose affinity extraction of normal human liver lysate 3, LC-MS/MS"}, "[9]": {"biological_target": "Cytochrome b-c1 complex subunit 6, mitochondrial (Homo sapiens) (UniProt P07919)", "sequence (P07919 14-91 limits assumed, one chain of several)": "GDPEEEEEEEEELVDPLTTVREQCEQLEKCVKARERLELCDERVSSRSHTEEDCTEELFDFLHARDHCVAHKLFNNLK", "experiment": "PIF-agarose affinity extraction of normal human liver lysate 3, LC-MS/MS"}, "[10]": {"biological_target": "Delta-aminolevulinic acid dehydratase (Homo sapiens) (UniProt P13716)", "sequence (P13716 whole entry, stated change not applied)": "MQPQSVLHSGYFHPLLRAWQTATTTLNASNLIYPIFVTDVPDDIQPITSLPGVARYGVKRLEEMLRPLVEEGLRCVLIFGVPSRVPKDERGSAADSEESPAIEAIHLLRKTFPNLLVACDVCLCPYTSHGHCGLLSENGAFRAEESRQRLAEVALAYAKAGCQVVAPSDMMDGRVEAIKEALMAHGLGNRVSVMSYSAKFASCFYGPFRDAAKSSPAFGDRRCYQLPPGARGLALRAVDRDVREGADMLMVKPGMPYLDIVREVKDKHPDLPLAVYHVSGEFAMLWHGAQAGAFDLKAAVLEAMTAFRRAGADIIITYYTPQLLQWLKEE", "experiment": "PIF-agarose affinity extraction of normal human liver lysate 3, LC-MS/MS"}, "[11]": {"biological_target": "Endoplasmin (Homo sapiens) (UniProt P14625)", "experiment": "PIF-agarose affinity extraction of normal human liver lysate 3, LC-MS/MS"}, "[12]": {"biological_target": "Enoyl-CoA hydratase domain-containing protein 2, mitochondrial (Homo sapiens) (UniProt Q86YB7)", "experiment": "PIF-agarose affinity extraction of normal human liver lysate 3, LC-MS/MS"}, "[13]": {"biological_target": "Calmodulin (Homo sapiens) (UniProt P0DP23)", "experiment": "PIF-agarose affinity extraction of normal human liver lysate 3, LC-MS/MS"}, "[14]": {"biological_target": "Peroxiredoxin-1 (Homo sapiens) (UniProt Q06830)", "experiment": "PIF-agarose affinity extraction of normal human liver lysate 3, LC-MS/MS"}, "[15]": {"biological_target": "Cytosolic 10-formyltetrahydrofolate dehydrogenase (Homo sapiens) (UniProt O75891)", "experiment": "PIF-agarose affinity extraction of normal human liver lysate 3, LC-MS/MS"}, "[16]": {"biological_target": "14-3-3 protein epsilon (Homo sapiens) (UniProt P62258)", "experiment": "PIF-agarose affinity extraction of normal human liver lysate 3, LC-MS/MS"}, "[17]": {"biological_target": "Alpha-actinin-4 (Homo sapiens) (UniProt O43707)", "sequence (O43707 whole entry)": "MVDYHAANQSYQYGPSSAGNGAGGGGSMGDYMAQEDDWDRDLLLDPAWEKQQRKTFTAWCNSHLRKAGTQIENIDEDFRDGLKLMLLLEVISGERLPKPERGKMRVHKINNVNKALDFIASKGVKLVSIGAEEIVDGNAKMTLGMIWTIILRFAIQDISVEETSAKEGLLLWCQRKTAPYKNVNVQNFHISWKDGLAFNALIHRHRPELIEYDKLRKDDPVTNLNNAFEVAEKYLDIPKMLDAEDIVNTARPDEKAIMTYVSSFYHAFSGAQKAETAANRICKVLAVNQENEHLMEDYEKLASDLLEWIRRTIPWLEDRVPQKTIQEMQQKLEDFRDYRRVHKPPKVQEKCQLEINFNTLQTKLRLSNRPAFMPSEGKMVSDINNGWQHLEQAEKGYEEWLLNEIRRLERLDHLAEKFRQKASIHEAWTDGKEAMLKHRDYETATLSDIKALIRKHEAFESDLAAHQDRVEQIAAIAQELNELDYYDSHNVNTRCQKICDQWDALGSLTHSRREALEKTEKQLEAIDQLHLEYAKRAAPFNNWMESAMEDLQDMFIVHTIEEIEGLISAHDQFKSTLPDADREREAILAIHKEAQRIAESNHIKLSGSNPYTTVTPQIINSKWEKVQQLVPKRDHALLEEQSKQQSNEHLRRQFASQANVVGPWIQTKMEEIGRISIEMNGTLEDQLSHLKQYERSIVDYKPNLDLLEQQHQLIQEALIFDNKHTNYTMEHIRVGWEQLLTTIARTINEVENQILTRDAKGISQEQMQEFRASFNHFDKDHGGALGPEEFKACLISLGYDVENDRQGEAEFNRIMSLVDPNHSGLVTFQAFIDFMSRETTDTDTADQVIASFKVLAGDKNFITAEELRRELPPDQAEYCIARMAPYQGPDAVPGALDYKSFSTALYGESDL", "experiment": "PIF-agarose affinity extraction of normal human liver lysate 3, LC-MS/MS"}, "Vimentin (Homo sapiens)": {"biological_target": "Vimentin (Homo sapiens) (UniProt P08670)", "experiment": "PIF-agarose affinity extraction of normal human liver lysate 3, LC-MS/MS"}, "[18]": {"biological_target": "Alcohol dehydrogenase 1B (Homo sapiens) (UniProt P00325)", "sequence (P00325 2-375 limits assumed)": "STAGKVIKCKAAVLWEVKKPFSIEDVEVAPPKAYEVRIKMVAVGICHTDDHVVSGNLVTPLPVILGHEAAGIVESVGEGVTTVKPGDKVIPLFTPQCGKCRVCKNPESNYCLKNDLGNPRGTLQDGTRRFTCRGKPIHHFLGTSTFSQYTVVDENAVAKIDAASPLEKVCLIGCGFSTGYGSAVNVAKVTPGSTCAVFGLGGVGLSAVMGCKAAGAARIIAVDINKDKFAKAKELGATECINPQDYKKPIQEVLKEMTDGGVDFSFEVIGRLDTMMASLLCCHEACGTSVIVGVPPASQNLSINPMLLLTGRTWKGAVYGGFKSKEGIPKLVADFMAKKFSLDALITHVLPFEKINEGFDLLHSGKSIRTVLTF", "experiment": "PIF-agarose affinity extraction of normal human liver lysate 3, LC-MS/MS"}, "[19]": {"biological_target": "Transitional endoplasmic reticulum ATPase (Homo sapiens) (UniProt P55072)", "sequence (P55072 2-806 limits assumed)": "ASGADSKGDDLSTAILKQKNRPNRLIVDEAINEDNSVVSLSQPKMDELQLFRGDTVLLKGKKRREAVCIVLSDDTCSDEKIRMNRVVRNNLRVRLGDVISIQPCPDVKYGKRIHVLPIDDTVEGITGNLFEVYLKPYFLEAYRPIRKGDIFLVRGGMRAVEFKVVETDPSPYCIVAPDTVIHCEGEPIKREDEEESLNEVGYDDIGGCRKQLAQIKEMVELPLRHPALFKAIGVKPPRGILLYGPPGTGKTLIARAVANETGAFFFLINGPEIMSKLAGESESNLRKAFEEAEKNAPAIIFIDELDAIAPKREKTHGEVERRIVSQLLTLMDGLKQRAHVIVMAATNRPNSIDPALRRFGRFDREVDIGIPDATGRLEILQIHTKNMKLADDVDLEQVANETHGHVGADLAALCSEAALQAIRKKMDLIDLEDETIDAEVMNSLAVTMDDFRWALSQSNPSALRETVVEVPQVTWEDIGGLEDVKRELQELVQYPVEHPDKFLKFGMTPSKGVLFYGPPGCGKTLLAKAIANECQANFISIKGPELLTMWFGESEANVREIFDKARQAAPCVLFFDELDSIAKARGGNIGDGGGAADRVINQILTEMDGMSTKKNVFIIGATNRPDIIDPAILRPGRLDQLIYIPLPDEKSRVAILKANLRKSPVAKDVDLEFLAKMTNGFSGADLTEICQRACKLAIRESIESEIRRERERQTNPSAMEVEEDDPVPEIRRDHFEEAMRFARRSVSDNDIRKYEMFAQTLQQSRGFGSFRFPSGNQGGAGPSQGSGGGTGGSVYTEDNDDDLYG", "experiment": "PIF-agarose affinity extraction of normal human liver lysate 3, LC-MS/MS"}, "[20]": {"biological_target": "Alcohol dehydrogenase 4 (Homo sapiens) (UniProt P08319)", "sequence (P08319 whole entry)": "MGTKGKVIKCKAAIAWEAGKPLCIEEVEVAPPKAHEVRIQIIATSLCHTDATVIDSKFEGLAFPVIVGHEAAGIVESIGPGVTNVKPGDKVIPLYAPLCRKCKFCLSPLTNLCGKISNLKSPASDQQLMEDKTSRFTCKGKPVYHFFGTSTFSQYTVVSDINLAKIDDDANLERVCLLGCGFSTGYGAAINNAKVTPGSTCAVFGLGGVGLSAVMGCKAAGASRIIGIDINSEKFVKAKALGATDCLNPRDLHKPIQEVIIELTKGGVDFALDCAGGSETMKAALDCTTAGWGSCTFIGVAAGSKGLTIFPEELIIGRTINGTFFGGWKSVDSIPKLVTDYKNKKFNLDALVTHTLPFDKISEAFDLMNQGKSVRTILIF", "experiment": "PIF-agarose affinity extraction of normal human liver lysate 3, LC-MS/MS"}, "[21]": {"biological_target": "Hepatoma-derived growth factor (Homo sapiens) (UniProt P51858)", "sequence (P51858 whole entry)": "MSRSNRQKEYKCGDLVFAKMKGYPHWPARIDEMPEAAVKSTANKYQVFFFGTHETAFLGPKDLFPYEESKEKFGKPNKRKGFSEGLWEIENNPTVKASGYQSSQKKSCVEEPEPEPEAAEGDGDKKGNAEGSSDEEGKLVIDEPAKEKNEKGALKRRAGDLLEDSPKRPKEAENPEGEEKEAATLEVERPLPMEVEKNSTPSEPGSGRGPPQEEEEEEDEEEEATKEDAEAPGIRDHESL", "experiment": "PIF-agarose affinity extraction of normal human liver lysate 3, LC-MS/MS"}, "[22]": {"biological_target": "Parathymosin (Homo sapiens) (UniProt P20962)", "sequence (P20962 2-102 limits assumed)": "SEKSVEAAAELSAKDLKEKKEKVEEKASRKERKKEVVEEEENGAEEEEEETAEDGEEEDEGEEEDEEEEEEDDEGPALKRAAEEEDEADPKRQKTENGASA", "experiment": "PIF-agarose affinity extraction of normal human liver lysate 3, LC-MS/MS"}, "[23]": {"biological_target": "Membrane-associated progesterone receptor component 1 (Homo sapiens) (UniProt O00264)", "sequence (O00264 whole entry)": "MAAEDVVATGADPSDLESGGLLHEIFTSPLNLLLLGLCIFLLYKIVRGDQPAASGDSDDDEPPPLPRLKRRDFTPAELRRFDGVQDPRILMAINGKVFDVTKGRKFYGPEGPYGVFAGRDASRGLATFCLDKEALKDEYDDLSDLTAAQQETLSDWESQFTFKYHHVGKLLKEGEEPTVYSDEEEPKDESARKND", "experiment": "PIF-agarose affinity extraction of normal human liver lysate 3, LC-MS/MS"}, "[24]": {"biological_target": "Cytochrome b5 (Homo sapiens) (UniProt P00167)", "experiment": "PIF-agarose affinity extraction of normal human liver lysate 3, LC-MS/MS"}, "[25]": {"biological_target": "Protein disulfide-isomerase A4 (Homo sapiens) (UniProt P13667)", "experiment": "PIF-agarose affinity extraction of normal human liver lysate 2, LC-MS/MS"}, "[26]": {"biological_target": "Alcohol dehydrogenase 1A (Homo sapiens) (UniProt P07327)", "experiment": "PIF-agarose affinity extraction of normal human liver lysate 2, LC-MS/MS"}, "[27]": {"biological_target": "Protein disulfide-isomerase A3 (Homo sapiens) (UniProt P30101)", "experiment": "PIF-agarose affinity extraction of normal human liver lysate 2, LC-MS/MS"}, "[28]": {"biological_target": "Cytochrome b-c1 complex subunit 6, mitochondrial (Homo sapiens) (UniProt P07919)", "experiment": "PIF-agarose affinity extraction of normal human liver lysate 2, LC-MS/MS"}, "[29]": {"biological_target": "Delta-aminolevulinic acid dehydratase (Homo sapiens) (UniProt P13716)", "experiment": "PIF-agarose affinity extraction of normal human liver lysate 2, LC-MS/MS"}, "[30]": {"biological_target": "Alpha-actinin-4 (Homo sapiens) (UniProt O43707)", "experiment": "PIF-agarose affinity extraction of normal human liver lysate 2, LC-MS/MS"}, "[31]": {"biological_target": "Alcohol dehydrogenase 1B (Homo sapiens) (UniProt P00325)", "experiment": "PIF-agarose affinity extraction of normal human liver lysate 2, LC-MS/MS"}, "[32]": {"biological_target": "Transitional endoplasmic reticulum ATPase (Homo sapiens) (UniProt P55072)", "experiment": "PIF-agarose affinity extraction of normal human liver lysate 2, LC-MS/MS"}, "[33]": {"biological_target": "Alcohol dehydrogenase 4 (Homo sapiens) (UniProt P08319)", "experiment": "PIF-agarose affinity extraction of normal human liver lysate 2, LC-MS/MS"}, "[34]": {"biological_target": "Hepatoma-derived growth factor (Homo sapiens) (UniProt P51858)", "experiment": "PIF-agarose affinity extraction of normal human liver lysate 2, LC-MS/MS"}, "[35]": {"biological_target": "Parathymosin (Homo sapiens) (UniProt P20962)", "experiment": "PIF-agarose affinity extraction of normal human liver lysate 2, LC-MS/MS"}, "[36]": {"biological_target": "Membrane-associated progesterone receptor component 1 (Homo sapiens) (UniProt O00264)", "experiment": "PIF-agarose affinity extraction of normal human liver lysate 2, LC-MS/MS"}},
  "data": [
    {"substance": "sPIF-1(15) (peptide)", "values": [
      {"measurement": "% Coverage of the unique peptides observed", "setting": "[1]", "result": 48, "unit": "%"},
      {"measurement": "% Coverage of the unique peptides observed", "setting": "[2]", "result": 34, "unit": "%"},
      {"measurement": "% Coverage of the unique peptides observed", "setting": "[3]", "result": 51, "unit": "%"},
      {"measurement": "% Coverage of the unique peptides observed", "setting": "[4]", "result": 54, "unit": "%"},
      {"measurement": "% Coverage of the unique peptides observed", "setting": "[5]", "result": 42, "unit": "%"},
      {"measurement": "% Coverage of the unique peptides observed", "setting": "[6]", "result": 70, "unit": "%"},
      {"measurement": "% Coverage of the unique peptides observed", "setting": "[7]", "result": 40, "unit": "%"},
      {"measurement": "% Coverage of the unique peptides observed", "setting": "[8]", "result": 75, "unit": "%"},
      {"measurement": "% Coverage of the unique peptides observed", "setting": "[9]", "result": 58, "unit": "%"},
      {"measurement": "% Coverage of the unique peptides observed", "setting": "[10]", "result": 25, "unit": "%"},
      {"measurement": "% Coverage of the unique peptides observed", "setting": "[11]", "result": 43, "unit": "%"},
      {"measurement": "% Coverage of the unique peptides observed", "setting": "[12]", "result": 31, "unit": "%"},
      {"measurement": "% Coverage of the unique peptides observed", "setting": "[13]", "result": 46, "unit": "%"},
      {"measurement": "% Coverage of the unique peptides observed", "setting": "[14]", "result": 29, "unit": "%"},
      {"measurement": "% Coverage of the unique peptides observed", "setting": "[15]", "result": 52, "unit": "%"},
      {"measurement": "% Coverage of the unique peptides observed", "setting": "[16]", "result": 64, "unit": "%"},
      {"measurement": "% Coverage of the unique peptides observed", "setting": "[17]", "result": 19, "unit": "%"},
      {"measurement": "% Coverage of the unique peptides observed", "setting": "Vimentin (Homo sapiens)", "result": 52, "unit": "%"},
      {"measurement": "% Coverage of the unique peptides observed", "setting": "[18]", "result": 66, "unit": "%"},
      {"measurement": "% Coverage of the unique peptides observed", "setting": "[19]", "result": 52, "unit": "%"},
      {"measurement": "% Coverage of the unique peptides observed", "setting": "[20]", "result": 61, "unit": "%"},
      {"measurement": "% Coverage of the unique peptides observed", "setting": "[21]", "result": 52, "unit": "%"},
      {"measurement": "% Coverage of the unique peptides observed", "setting": "[22]", "result": 82, "unit": "%"},
      {"measurement": "% Coverage of the unique peptides observed", "setting": "[23]", "result": 46, "unit": "%"},
      {"measurement": "% Coverage of the unique peptides observed", "setting": "[24]", "result": 43, "unit": "%"},
      {"measurement": "% Coverage of the unique peptides observed", "setting": "[25]", "result": 52, "unit": "%"},
      {"measurement": "% Coverage of the unique peptides observed", "setting": "[26]", "result": 53, "unit": "%"},
      {"measurement": "% Coverage of the unique peptides observed", "setting": "[27]", "result": 44, "unit": "%"},
      {"measurement": "% Coverage of the unique peptides observed", "setting": "[28]", "result": 53, "unit": "%"},
      {"measurement": "% Coverage of the unique peptides observed", "setting": "[29]", "result": 49, "unit": "%"},
      {"measurement": "% Coverage of the unique peptides observed", "setting": "[30]", "result": 45, "unit": "%"},
      {"measurement": "% Coverage of the unique peptides observed", "setting": "[31]", "result": 54, "unit": "%"},
      {"measurement": "% Coverage of the unique peptides observed", "setting": "[32]", "result": 51, "unit": "%"},
      {"measurement": "% Coverage of the unique peptides observed", "setting": "[33]", "result": 52, "unit": "%"},
      {"measurement": "% Coverage of the unique peptides observed", "setting": "[34]", "result": 56, "unit": "%"},
      {"measurement": "% Coverage of the unique peptides observed", "setting": "[35]", "result": 48, "unit": "%"},
      {"measurement": "% Coverage of the unique peptides observed", "setting": "[36]", "result": 46, "unit": "%"}
    ]}
  ]
}
